Consider four molecules from US7179468 (CORNELL RESEARCH FOUNDATION, dated 2007).

Data set [1] has as its target HIV-1 envelope glycoprotein (gp120/gp41 complex) of isolate 2076c1.3 (HIV-1). Put plainly: cell-based or functional assay.
Data set [2] concerns the target HIV-1 envelope glycoprotein (gp120/gp41 complex) of isolate 92US657 (HIV-1). Put plainly: cell-based or functional assay.
Data set [3] has as its target HIV-1 envelope glycoprotein (gp120/gp41 complex) of isolate DH123 (HIV-1). As to the kind of experiment: cell-based or functional assay.
The target of data set [4] is HIV-1 envelope glycoprotein (gp120/gp41 complex) of isolate HC4 (HIV-1). As to the kind of experiment: cell-based or functional assay.
The target of data set [5] is HIV-1 envelope glycoprotein (gp120/gp41 complex) of isolate JRFL (HIV-1). Put plainly: cell-based or functional assay.
Data set [6] concerns the target HIV-1 envelope glycoprotein (gp120/gp41 complex) of isolate NL4-3 (HIV-1). Put plainly: cell-based or functional assay.
For data set [7], the target named is HIV-1 envelope glycoprotein (gp120/gp41 complex) of isolate SF162 (HIV-1) (UniProt P19549). Put plainly: cell-based or functional assay.
The target in data set [8] is Q652L peptide (C52 peptide with leucine for glutamine at position 652) (HIV-1 (HXB2 strain)). As to the kind of experiment: sedimentation equilibrium, 4 C; self-association.
Data set [9] concerns the molecule itself. As to the kind of experiment: sedimentation equilibrium; self-association.

Take CD4-IgG2 (Fc fusion): the EC50 IgG (ug/ml), neutralization of HIV-1 (p24 production in PHA-activated PBMC) was > 10 µg/mL in [1]; > 10 µg/mL in [2]; 5.18 µg/mL in data set [3]; > 10 µg/mL in data set [4]; 0.51 µg/mL in [5]; 0.21 µg/mL in data set [6]. In data set [7], the EC50 IgG (ug/ml), neutralization of HIV-1 (p24 production in PHA-activated PBMC) is < 0.062 µg/mL.
For the molecule “human antibody 2F5 isolated from an HIV-1-infected donor”, the EC50 IgG (ug/ml), neutralization of HIV-1 (p24 production in PHA-activated PBMC) in [1] turned out to be 38.1 µg/mL; in data set [2] it was 57.8 µg/mL; in [4] it was 34.2 µg/mL; in [5] it was 4.37 µg/mL; in data set [6] it was 15.2 µg/mL.
“Q652L peptide (C52 peptide with leucine for glutamine at position 652)” displayed a molecular weight from sedimentation equilibrium (expected for a trimer 19,419) in [8] of 17700.

B1: N656L peptide (C52 peptide with leucine for asparagine at position 656) (peptide)
chain: NHTTWLEWDREINNYTSLIHSLIEESQNQQEKLEQELLELDKWASLWNWFNI
notes: No unique oligomeric state; The apparent molecular weight depends on the concentration
In the case of B1, the binding result in [9] was “binds”.
